Source: patent US12686712B2, “Antibody, related use, pharmaceutical composition including method for diagnosing fungal infections, fungal infection diagnosis kit and method for treating fungal infections” (priority 2020, dated 2026)

Tests used:
C. albicans [1] = assay: Indirect ELISA against intact cells using poly-L-Lysine (PL); type: binding, Candida albicans; conditions: 10^4 and 10^5 cells/ml
Experimental: For this test, C. neoformans (H99), Candida albicans, Giardia lamblia, human lung line cell A549 (ATCC), Escherichia coli and Staphylococcus aureus. Cells were washed in PBS three times and suspended at 10^7 cell/ml density in poly-L-Lysine (5 μg/ml in PBS) for adherence at night at 4° C. The next day, plates were blocked with PBS/BSA 5% and incubated for 1 hour at 37° C., then they are incubated for 1 hour at 37° C. with anti-chitooligomer AcM at 50 μg/ml concentration and diluted at 5 μg/ml. Then, washing with PBS/Tween 0.05% was performed for 3 times and anti-IgM murine peroxidase was added diluted 1:5000 and incubated for 2 hours at 37° C. Plates were washed again and TMB was added and incubated for 30 minutes at 37° C.
Reaction was stopped with HCl 1 N and reading with spectrophotometer at 450 nm. After this trial, seriated dilutions were performed at density of cells 10^7 until 10 cells/ml to fungi and 10^7 until 10^4 cells/ml to other cellular types and tested of AcM anti-chitooligomer at 25 μg/ml concentration, followed by the same procedures abovementioned. […]
In this trial, 10^7 cell/ml of C. albicans were used to perform an absorbance curve, in which it was observed that there was a 25 μg/ml concentration reliable signal of both AcM, as above such value the curve starts to enter in plateau, as provided in FIG. 9. […]

C. albicans [2] = assay: Dot Blot against intact cells using PL; type: binding, Candida albicans; conditions: AcM 25 μg/ml; cells in 5 μg/ml PL diluted in base 10 from 10^7 cell/ml; 3 independent experiments
Experimental: C. neoformans (H99) and Candida albicans in 10^7 cell/ml density until 10 cells/ml were suspended in poly-L-Lysine solution (5 μg/ml in PBS) and 10 μl were loaded in nitrocellulose membranes. Then, the same steps for ELISA were followed, however, 25 μg/ml concentration of AcM anti-chitooligomers. Membrane was cut and deposited in 96-well plates, to which 50 μl TMB was added and incubated for 30 minutes at 37° C. Volume was removed and transferred to a new plate, to which stop reaction was added with HCl 1 N and read with spectrophotometer at 450 nm.
The principle used in this trial was the same of ELISA and was based on the load presented by fungi. As nitrocellulose membrane has negative load, PL was used to check positive load to fungus, and consequently have bond to membrane.
As provided in FIG. 11, it was initially diluted in 5 μg/ml of PL at 10^7 cell/ml concentration and diluted in base 10. In this trial, it was evidenced that AcM HC6/DD11 was capable to bond to C. albicans up to 10^4 cell/ml order, which counters C. neoformans, that was identified to 10^6 cell/ml order. 3 independent experiments were performed to each trial. Example 16.7—Immunofluorescence

C. neoformans = assay: Melanization trial (L-DOPA); type: cell-based, Cryptococcus neoformans; conditions: concentrations lower than 6.2 μg/ml; p>0.05
Experimental: C. neoformans cultivation was performed as paragraph and cellular suspension (1×10^6 cells/ml) was cultivated for 72 hours in minimum media supplemented with 1 mM of L-DOPA in 96-well plate of U-shape bottom. Antibodies HC6/DD11 and AF1/CC5 were added to minimum media within 25 to 0.05 μg/ml concentration range. The plate was centrifuged and pigment development quantification was defined densitometrically upon image scanning by iBright FL1000 Invitrogen equipment.
AcM HC6/DD11 e AF1/CC5 established concentrations were 0.2 to 25 μg/ml. L-DOPA was used with substrate to melanization.
Pigmentation in C. neoformans was assessed through brown to black sedimentation observation in 96-well plate bottom. To document pigmentation or inhibition, plates were photographed over white surfaces (clear bottom), to enable differentiation between pigmented and non-pigmented populations. It shall be noted that every AcM dose presents fungal growth, however with negative pigmentation or partial inhibition.

[3] = system: acapsular mutant of C. neoformans Cap67; assay: Biofilm development, XTT reduction trial; type: cell-based, Cryptococcus neoformans; conditions: AcM 25 μg/ml, 48 hours at 37° C., vs fungus without treatment, p<0.05
Experimental: C. neoformans (H99 and Cap67) and Candida albicans were cultivated in Sabouraud media for 24 hours at 30° C. Cellular suspensions were centrifuged for 5 minutes at 3000 g, washed 3 times in PBC and suspended in minimum media (20 mg/ml thiamin, 30 mm glucose, 26 mM glycine, 20 mM MgSO4, and 58.8 mM KH2PO4). Then, they were added to 96-well plates (100 μl/well—1×10^6 células/ml) and cultivated for 48 hours at 37° C. at presence of AcM (HC6/DD11 and AF1/CC5) and AcM anti-GXM 18B7 (only to H99) at 25 μg/ml concentration, keeping under agitation for 30 minutes, for AcM total homogenization with fungi. As control, drug AmB was used at 1 μg/ml concentration.
Two analysis systems were performed: in the first, cells were washed, so that non-adhering cells were removed and only cells bonded to biofilm under development remained; in the second system, cells were not washed and all cells adhered or not to substrate were quantified.
Viable cell metabolic activity in both trials was assessed by the method based on decrease of XTT (2-methoxy-4-nitro-5-sulfophenyl)-5-[(phenylamino) carbonyl]-2H-tetrazolium hydroxide) in spectrophotometer at 492 nm of wavelength.
AcMs were tested (25 μg/ml) against three fungus species (C. albicans, C. neoformans—H99—and acapsular mutant of C. neoformans—Cap67), with control by AcM anti-GXM 18B7 (25 μg/ml) only to H99. In the first assay (FIGS. 14A and B), cellular suspensions were washed to remove non-adhering cells to substrate. […] In second assay (FIGS. 14C and D), cellular suspensions were not washed, and again AcM inhibited biofilm development (p<0.05) compared to cell not treated with antibodies. In both assays, cell growth was observed.

B1: HC6/DD11: murine IgM monoclonal antibody against chitooligomers (chitotriose); VH SEQ ID NO: 15, VL SEQ ID NO: 16 (antibody, listed as Mus musculus, V domains shown)
VH: STGQVKLEESGGGLVQPGGSRKLSCAASGFTFSDYGMAWVRQAPGKGPEWVAFISNLAYSIYYADTVTGRFTISRENAKNTLYLEMSSLRSEDTAMYYCARDYYGSSYWYFDVWGAGTTVTAPC
VL: ATNSCISRGEVTITCSASSSVSYMHWFQQKPGTSPKLWIYSTSNLASGVPARFSGSGSGTSYSLTISRMEAEDAATYYCQQRSSYPLTFGAGTKLELKRADAAPTVSLET
ELISA signal in cell saturation curve (C. albicans [1]): slightly more sensitive | cell density down to which AcM was capable to bond (Dot Blot) (C. albicans [2]): 10^4 cell/ml | melanization in lower concentrations (C. neoformans): not significant inhibition | biofilm development (XTT reduction) ([3]; non-washed cells): reduced biofilm development significantly | biofilm development (XTT reduction) ([3]; washed cells): reduced biofilm development significantly
